Results from patent US6623741.

Target: viral gp41 of HIV-1 (on HIV-1 virions and HIV-1 infected cells) (HIV-1) (UniProt P04578)
Experiment: cell-based or functional assay

Substance | Cell Fusion (IC90) [nM] | HIV-infectivity (IC90) [nM]
DP107 (peptide) | 1000 | 1000
DP178 (peptide) | 1 | 80
M41 (maltose binding protein fused to the extracellular domain of HIV-1 gp41, residues 540-686) (from UniProt P03377 540-686) | > 50000 | > 16
M41-P (M41 with Ile to Pro mutation at position 578) (from UniProt P03377 540-686) | 83 | 66
M41-PΔ178 (M41Δ178 with the Ile to Pro mutation at position 578) (from UniProt P03377 540-642) | > 50000 | > 8000

Target: MF-IV (MF5.1): E. coli maltose binding protein fused to RSV F protein residues 142-302 (E. coli; respiratory syncytial virus (strain A2)) (UniProt P03420)
Experiment: competitive binding assay (B50) on the MF5.1 fusion protein (DP107 target)

Substance | binding affinity [nM]
T1091 (peptide) | 19

Target: MF-IV (MF5.1): E. coli maltose binding protein fused to RSV F protein residues 142-302 (E. coli; respiratory syncytial virus (strain A2)) (UniProt P03420)
Experiment: competitive binding assay (B50) on the MF5.1 fusion protein; reference T112

Substance | fold lower binding affinity than T112 [fold]
T1091 (peptide) | 10
